Laboratory results from the nanobody polyreactivity screen of Harvey et al. (2022).

test: yeast display, Sf9 membrane polyspecificity reagent, FACS + sequencing; frameworks hold sequencing errors
Method in brief: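 A nanobody's polyreactivity label depends on the gate it was sorted from. Yeast display cells were stained with 10% biotinylated, detergent-solubilized Sf9 membrane reagent for 1 hour at 4 °C, enriched on streptavidin microbeads and sorted by FACS. The low and high (top ~1%) gates were set on anti-HA fluorescence for expression and streptavidin fluorescence for reagent binding.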

Row | Sequence | polyreactivity (PSR sort gate)
1 | QVQLVESGGGLVQAGGSLSLSCAASARTFYGSAKGWYRQAPGKERELVAAINYSGGRTYYADSVKGRFTISRDNAKNTVYLQMNSLKAEDTAGYYCAAPRASGYYWGQGTQVTVSS | high polyreactivity
2 | QVQLVESGGGLVQAGGSLSLSCAASGFTFAFYAMGWYRQAPGKERELVAAISWDGVTTYYADSVKGRFTISRDNAKNTVYLQMNSLKPEDTAVYYCAADYPDYAGSFWPSGMYYWGQGTQVTVSS | low polyreactivity
3 | QVQLVESGGGLVQAGGSLSLSCAASGFTVKFYAMGWYRQAPGKERELVATISSRGTSTYYADSVKGRFTISRDNAKNTVYLQMNSLKPEDTAVYYCAAAWFPAYQYRYYYWGQGTQVTVSS | high polyreactivity
4 | QVQLVESGGGLVQAGGSLSLSCAASGFTYRLYTMGWYRQAPGKERELVAGISTSGGSTYYADSVKGRFTISRDNAKHTVYLQMNSLKPEDTAVYYCAAQAFTSYDYWGQGTQVTVSS | high polyreactivity
5 | QVQLVESGGGLVQAGGSLSLSCAASGGIFFIYTMGWKRQAPGKEREMVAAITSTGDTKYADSVKGRFTISRDNAKTTVYLQMNSLKPEDTAVYYCNKDNGTRGKGYDYWGQGTQVTVSS | low polyreactivity
6 | QVQLVESGGGLVQAGGSLSLSCAASGGIFFYYAMGWYRQAPGKEMELVASISYSGGSTYYADSVKGRFTISRDNAKNTVYLQMNSLKTEDTAVYYCAARTHYFPWPWYVWDYDSWGQGTQVTVSS | low polyreactivity
7 | QVQLVESGGGLVQAGGSLSLSCAASGLIFDVYAMGWYRKAPGKERELVAVISRGVSTNYPDSVKGRFTISRDNAKNTVYLQMNSLKPEDTAVYYCATDSRGYDYWGQCTQVTVSS | high polyreactivity
8 | QVQLVESGGGLVQAGGSLSLSCAASGLTFAKNAMGWYRQAPGKERELVAVITSSGGSTYYADSVKGRFTISRDNAKNTVYLQMNSLKPEDTAVYYCNVAYYDRSRSTGYEYWGQGTQVTVSS | high polyreactivity
9 | QVQLVESGGGLVQAGGSLSLSCAASGLTFFGYAIGWYRQAPGKEREVVAAISTSGTRTYYADSVKGRFTISRDNAKNTVYLQMNSLKPEDTAVYYCATVRYQEYDYWGQGTQVTVSS | high polyreactivity
10 | QVQLVESGGGLVQAGGSLSLSCAASGLTFYKNAMGWYRQAPGKERELVAVISSSGGSTYYADSVKGRFTISRDHAKNTVYLQMNSLKPEDTAVYYCARDLYTEYRWGRLTYDYWGQGTQVTVSS | low polyreactivity
11 | QVQLVESGGGLVQAGGSLSLSCAASGRIFPYNDLGWYRQAPGKERELVADINSGDSTNYADSVKGRFTISRDNAKNTVYLQMNSLKPEDTAVYYCAAGYVRYPGVIDEYWGQGTQVTVSS | low polyreactivity
12 | QVQLVESGGGLVQAGGSLSLSCAASGRIFTRYAMGWYRQAPGKERELVAAISYGGGGTYYADSVKGRFTISRDNAKNTVYLQMNSLKPEDTAVYYCATDDPLSQINEHGMDYWGQGTQVTVSS | low polyreactivity
13 | QVQLVESGGGLVQAGGSLSLSCAASGRIFTYYAMGWYRQAPGKERELVAAINWGVVTTYYADSVKGRFTISRDNAKNTVYLQMNSLKPEDTAVYYCAADWFAANYYVNPVSALDYWGQGTQVTVSS | low polyreactivity
14 | QVQLVESGGGLVQAGGSLSLSCAASGRIIDWNTMGLYRQAPGKERDLDATISWDGGTKYYADSVKGRFTISRDTAKNTVFLQMNSLKPEDTAVYYCNKSPLNFFRFRATYDYWGQGTQVTVSS | low polyreactivity
15 | QVQLVESGGGLVQAGGSLSLSCAASGRIYNYAMGWYRQAPGKERELVAAITGRGGSTYYADSVKGRFTISRDNAKNTVYLQMNSLKPEDTAVYYCARAGGPRHDWGQGTQVTVSS | high polyreactivity
16 | QVQLVESGGGLVQAGGSLSLSCAASGRNFLRNAMGWYRKAPGKERELVAAIKSGGNTYYADSVKGRFTISRDNAKITVYLQMNSLKPEYTAVYYCADRQYGFASYRMDYWGHGTQVTVSS | high polyreactivity
17 | QVQLVESGGGLVQAGGSLSLSCAASGRTFLRYAMGWYRQAPGKERELVAAISWSGGRTYYADSVKGRFTISRDNAKNSVYLQMNSLKAEDTAVYYCNNVVLYGALYYYCGQGTQVTVSS | high polyreactivity
18 | QVQLVESGGGLVQAGGSLSLSCAASGRTFSYYAMGWYRQAPGKERELVAAISRSGSITYYADSVKGRFTISRDNAKNTIYLQMNSLKPEDTAVYYCNADSSRRRYSSDYWGQGTQVTVSS | high polyreactivity
19 | QVQLVESGGGLVQAGGSLSLSCAASGSIFDVNAMGWYRQAPGKERELVAAISDSGGSTYYADSVKGRFTISRDNAKNTVHLQMNSLKAEDTAVYYCNADWSWYNYYDFDYWGQGTQVTVSS | low polyreactivity
20 | QVQLVESGGGLVQAGGSLSLSCAASGSIFHPYTMGWYRQAPGKERELVAGISQSSDSTYYADSVKGRFTISRDNAKNTVYLQMNSLKPEDTAVYYCNRDNDWPLSVVEVDYWGQGTQVTVSS | low polyreactivity
21 | QVQLVESGGGLVQAGGSLSLSCAASGSIFLRNAMGWYRPAPGKERELVAAITRVGSTYADSVKGRFTISRDNAKNTVYLQMNSLKPEDTAVYYCAAVSGVRSGPWRYDYWGQGTQVTVSS | high polyreactivity
22 | QVQLVESGGGLVQAGGSLSLSCAASGSIFPRYTMGSYRQAPGKERELVAAISRSGGSTYYADSVKGRFTISRDNAKNTVYLQMNSLKPADTAVYYCDKSRPSKYDYWGQGTQVTVSS | high polyreactivity

Row | Sequence | polyreactivity (PSR sort gate)
23 | QVQLVESGGGLVQAGGSLSLSCAASGSIFQKYTMGWYRQAPRKERELVAAITRSGGSTYYADSVKGRFTISRDNAKNTVYLQMNSLKAEDSAVYYCNKRYIPWAYDYWGQGTQVTVSS | high polyreactivity
24 | QVQLVESGGGLVQAGGSLSLSCAASGSIFRINAMGWYRQATGKERELVARISWRAGNTYYADSVKGRFTISRDNAKNTVYLQMNSLKPEDTAVYYCNADYYVTGLYGPGYDYWGQGTKVTVSS | low polyreactivity
25 | QVQLVESGGGLVQAGGSLSLSCAASGSIFTHNAMGWYRQAPGKERELVAAISSGGSTNYADSVKGRFTISRDNAKNTVYLQMNSLKPEDTAVYYCAAGTQWYSQVYIYYYGGQGTQVTVSS | low polyreactivity
26 | QVQLVESGGGLVQAGGSLSLSCAASGSIFYVNTMGWYRQAHGKERELVADISSGDSTYYADSVKGRFTISRDNAKNTVYFQMNSLKPEDTAVYFCNADVYSWVSGKEGDYWGQGTQVTVSS | low polyreactivity
27 | QVQLVESGGGLVQAGGSLSLSCAASGSILFTNAMGWYRQAPGKERELVAAISSGGSTYYADSVKGRFTISRDNAKNTVYLQMNSLKPEDTAVYYCAASDHYRWYVHRWEDPFYYWGQGTQVTLSS | low polyreactivity
28 | QVQLVESGGGLVQAGGSLSLSCAASGSNFSENTMGWYRQAPGKKRELVADITSGGSTNYADSVKGRFTISRDNAKNTVYLQMNSLKPEDTAVYYCAADYHGEYDYWGQGTLVTVSS | low polyreactivity
29 | QVQLVESGGGLVQAGGSLSLSCAASGSTFAYYAMGWYRQAPGKERELVAGITWTGGSTYYADSVKGRFTISRDNAKNTVYIQMNSLKPEDTAVYYCAVTYPISEFYWGVKDRYDYWGQCTQVTVSS | low polyreactivity
30 | QVQLVESGGGLVQAGGSLSLSCAASGSTFGSNAMGWYRQAPAKERELVAAISWSGGRTYYADSVKGRFTISRDNAKNTVYLQMNRLIPEDTAVYYCYARQFRTMGYWGQGTQVNVSS | high polyreactivity
31 | QVQLVESGGGLVQAGGSLSLSCAASGSTFSPYAMGWYRQAPGKERELVAAITGSTGSTYYADSVKGRFTISRDNAKNTVYLQMNCLKPEDTAVYYCAAVSSNAGHVSRRRGYYWGQGTQVTVSS | high polyreactivity
32 | QVQLVESGGGLVQAGGSLSLSCAASGSTFVINAMGWYRPAPRKERELLAAIRGRCVSTSYADSVKGRFTISRDIAKNTVYLQMNSLKPEDTEVYYCAADSRTGYYYWGQGTQVTVSS | high polyreactivity
33 | QVQLVESGGGLVQAGGSLSLSCAASGSTFYGYAMGWYRQAPGKERELVAAITRSGGSTYYADSVKGRFTISRDNAKNTVYLQMNSLTPEDTAVYYCAAERLYYYVYWGQGTQVTVSS | low polyreactivity
34 | QVQLVESGGGLVQAGGSLSLSCAASGSTIGPNAMGWYRQAPGKERDLVAAINTRGGSTYYADSVKGRFTISRDHANNTVYLQMNSLKPEDTAVYYCAAEYVVWYLDRFNYWGQGTQVTVSS | high polyreactivity
35 | QVQLVESGGGLVQAGGSLSLSCAASGTFYGNTMGWYRQAPGKERELVAVISIDGSTNYADSVKGRFTISRDNAKNTVYLQMNCLKPEDTAVYYCNARNQWRTVGKYDYWGQGTQVSVSS | low polyreactivity
36 | QVQLVESGGGLVQAGGSLSLSCAATAFTFTYYAMGWYRQAPGKERELVAAITYSGGTTYYADSVKGRFTISRDNAKNTVYLQMNSLKPEDTAVYYCAAVPYYVLARSFYRYGYWGQGTQVTVSS | low polyreactivity
37 | QVQLVESGGGLVQAGGSLSLSCAATGNTFYINNMGWYRQAPGKEREFVAAITWSGGPTYYADSVKGRFTISRDNAKNTVYLQMNSLKPEDTAVYYCAARRSGRWTGWTFYYWGQGTQVTVSS | high polyreactivity
38 | QVQLVESGGGLVQAGGSLSLSCAATGSIFLHNAMGWYRQAPGKERELVAVITSRGGSTYYADSVKGRFTISRDNAKNTVYLQMNSLKPEDTAVYYCAAPAYHKRTSRGDYWGQGTQVTVSS | low polyreactivity
39 | QVQLVESGGGLVQAGGSLSLSCADSGSTIYRYAMGWNRQAPGKEREFVATISRSGGGTYYADSEKGRLTISRDNAMNTVYLQMISLKPEDTSVYYCAARDVVQAGYYVKKYDYWGQGTQVTVSS | high polyreactivity
40 | QVQLVESGGGLVQAGGSLSLSCASTGFIITQNAMGWYRQAHGKERYLVAAISWRAGSTYYADSVKGRFTISRDNAKNTVYLQMNSLKPEDTAVYYCATRQTKYSNYRGDYWGQGTQVTVSS | high polyreactivity
41 | QVQLVESGGGLVQAGGSLSLSCDASGRIIHSYAMGWYRQEPGKERELVAAISWSGTSTYYADSVKGRFTISRDNAKNTVYLQMNSLKPEDTEVYYCAARGRYVFDGYRMYFWGQGSQVTVSS | high polyreactivity
42 | QVQLVESGGGLVQAGGSLSLSCDASGSTFYYNAMGWYRQAPGKERELVAAITFTGGSTYADSVKGRFTISRDNAKNTVYLQMNSLKPEDTAVYYCSATIQGHDYLGTGYDYWGQGTQVTVSS | low polyreactivity
43 | QVQLVESGGGLVQAGGSLSLSCSASGSIFAGYARGWYRQAPGKERELVAAISVSGGGTYYADSVKGRFTISRDNAKNTVYLQMNSLKPEDTAVYYCAATGSSRYGRNYYSWGQGTQVTVSS | high polyreactivity
